Assay results taken from the supplement of paper PMC9112550, “Optimization of the antimicrobial peptide Bac7 by deep mutational scanning” (BMC Biology, 2022).

System: Escherichia coli TOP10
Assay: shrunken log2 fold change of peptide-encoding DNA abundance (4.5 h post-induction vs induction); higher = less antimicrobial activity (less host growth inhibition)
Conditions: time post-induction: 4.5 h; library: site-saturation at positions 5, 18, 19, 20
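Further: peptides expressed intracellularly from a pBAD plasmid library in pooled LB shake-flask culture, induced with 0.3% L-arabinose, DNA abundance read by NGS, three biological replicates, DESeq2 with apeglm shrinkage.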

RRIRYRPPRLPRPRPRPATPPRP
shrunken log2 fold change: 0.158

RRIRLRPPRLPRPRPRPHNRPRP
shrunken log2 fold change: -0.205

RRIRERPPRLPRPRPRPEFGPRP
shrunken log2 fold change: -0.171

RRIRNRPPRLPRPRPRPIELPRP
shrunken log2 fold change: -0.232

RRIRMRPPRLPRPRPRPLHFPRP
shrunken log2 fold change: -0.0889

RRIRWRPPRLPRPRPRPERQPRP
shrunken log2 fold change: 0.353

RRIRWRPPRLPRPRPRPKSRPRP
shrunken log2 fold change: -0.0202

RRIRDRPPRLPRPRPRPVRYPRP
shrunken log2 fold change: 0.152

RRIRVRPPRLPRPRPRPLCFPRP
shrunken log2 fold change: 0.258

RRIRIRPPRLPRPRPRPHKGPRP
shrunken log2 fold change: -0.145

RRIRNRPPRLPRPRPRPTNCPRP
shrunken log2 fold change: 0.143

RRIRERPPRLPRPRPRPFWYPRP
shrunken log2 fold change: -0.000951

RRIRARPPRLPRPRPRPRLRPRP
shrunken log2 fold change: 0.514

RRIRDRPPRLPRPRPRPMMMPRP
shrunken log2 fold change: -0.0648

RRIRHRPPRLPRPRPRPDKFPRP
shrunken log2 fold change: -0.16

RRIRCRPPRLPRPRPRPWALPRP
shrunken log2 fold change: 0.0591

RRIRFRPPRLPRPRPRPYDTPRP
shrunken log2 fold change: -0.106

RRIRSRPPRLPRPRPRPRHEPRP
shrunken log2 fold change: -0.0516

RRIRRRPPRLPRPRPRPHYIPRP
shrunken log2 fold change: -0.662

RRIRMRPPRLPRPRPRPQAEPRP
shrunken log2 fold change: 3.28

RRIRLRPPRLPRPRPRPSANPRP
shrunken log2 fold change: -0.0303

RRIRVRPPRLPRPRPRPTIYPRP
shrunken log2 fold change: -0.498

RRIRSRPPRLPRPRPRPAWKPRP
shrunken log2 fold change: 0.186

RRIRHRPPRLPRPRPRPGTTPRP
shrunken log2 fold change: -0.221

RRIRCRPPRLPRPRPRPAYHPRP
shrunken log2 fold change: -0.436

RRIRMRPPRLPRPRPRPFSVPRP
shrunken log2 fold change: -0.0472

RRIRVRPPRLPRPRPRPDDLPRP
shrunken log2 fold change: -0.0407

RRIRDRPPRLPRPRPRPVIGPRP
shrunken log2 fold change: 0.16

RRIRERPPRLPRPRPRPQEHPRP
shrunken log2 fold change: -0.179

RRIRHRPPRLPRPRPRPDLWPRP
shrunken log2 fold change: 0.0395

RRIRHRPPRLPRPRPRPKLRPRP
shrunken log2 fold change: -0.382

RRIRQRPPRLPRPRPRPVCQPRP
shrunken log2 fold change: -0.0856

RRIRCRPPRLPRPRPRPDEHPRP
shrunken log2 fold change: -0.417

RRIRSRPPRLPRPRPRPLRKPRP
shrunken log2 fold change: 0.383

RRIRPRPPRLPRPRPRPNNVPRP
shrunken log2 fold change: -0.22

RRIRFRPPRLPRPRPRPRNTPRP
shrunken log2 fold change: -0.279

RRIRQRPPRLPRPRPRPWWYPRP
shrunken log2 fold change: -0.0791

RRIRQRPPRLPRPRPRPHNCPRP
shrunken log2 fold change: 0.113

RRIRRRPPRLPRPRPRPSIPPRP
shrunken log2 fold change: -0.0753

RRIRVRPPRLPRPRPRPRGMPRP
shrunken log2 fold change: 0.274

RRIRPRPPRLPRPRPRPDNPPRP
shrunken log2 fold change: -0.00669

RRIRVRPPRLPRPRPRPMTRPRP
shrunken log2 fold change: -0.123

RRIRNRPPRLPRPRPRPEWFPRP
shrunken log2 fold change: -0.00884

RRIRARPPRLPRPRPRPYAVPRP
shrunken log2 fold change: -0.0829

RRIRERPPRLPRPRPRPIFIPRP
shrunken log2 fold change: -0.508

RRIRQRPPRLPRPRPRPGDQPRP
shrunken log2 fold change: -0.0566

RRIRARPPRLPRPRPRPIFMPRP
shrunken log2 fold change: 0.104

RRIRIRPPRLPRPRPRPRWKPRP
shrunken log2 fold change: 0.0818

RRIRQRPPRLPRPRPRPTSSPRP
shrunken log2 fold change: 0.088

RRIRKRPPRLPRPRPRPKSCPRP
shrunken log2 fold change: 0.00967

RRIRTRPPRLPRPRPRPHPCPRP
shrunken log2 fold change: -0.339

RRIRDRPPRLPRPRPRPTQVPRP
shrunken log2 fold change: 0.0721

RRIRQRPPRLPRPRPRPWCGPRP
shrunken log2 fold change: -0.00744

RRIRPRPPRLPRPRPRPSGVPRP
shrunken log2 fold change: -0.0831

RRIRERPPRLPRPRPRPSTYPRP
shrunken log2 fold change: -0.263

RRIRIRPPRLPRPRPRPDHHPRP
shrunken log2 fold change: -1.37

RRIRDRPPRLPRPRPRPLPVPRP
shrunken log2 fold change: -0.421

RRIRNRPPRLPRPRPRPLECPRP
shrunken log2 fold change: -0.311

RRIRARPPRLPRPRPRPEYIPRP
shrunken log2 fold change: 0.0332

RRIRERPPRLPRPRPRPGTTPRP
shrunken log2 fold change: -0.433

RRIRMRPPRLPRPRPRPFQDPRP
shrunken log2 fold change: -0.235

RRIRNRPPRLPRPRPRPGATPRP
shrunken log2 fold change: 0.124

RRIRFRPPRLPRPRPRPQTRPRP
shrunken log2 fold change: 0.149

RRIRCRPPRLPRPRPRPSMKPRP
shrunken log2 fold change: -0.567

RRIRTRPPRLPRPRPRPPVKPRP
shrunken log2 fold change: 0.385

RRIRIRPPRLPRPRPRPLHAPRP
shrunken log2 fold change: 0.00821

RRIRERPPRLPRPRPRPWIYPRP
shrunken log2 fold change: 0.013

RRIRVRPPRLPRPRPRPAECPRP
shrunken log2 fold change: -0.0646

RRIRGRPPRLPRPRPRPSCMPRP
shrunken log2 fold change: 0.336

RRIRKRPPRLPRPRPRPMMIPRP
shrunken log2 fold change: -0.0134

RRIRSRPPRLPRPRPRPKSGPRP
shrunken log2 fold change: 0.0485

RRIRNRPPRLPRPRPRPESKPRP
shrunken log2 fold change: -0.0938

RRIRDRPPRLPRPRPRPAFTPRP
shrunken log2 fold change: -0.155

RRIRGRPPRLPRPRPRPGIIPRP
shrunken log2 fold change: 0.0469

RRIRARPPRLPRPRPRPYCAPRP
shrunken log2 fold change: -0.277

RRIRQRPPRLPRPRPRPKHYPRP
shrunken log2 fold change: -0.223

RRIRWRPPRLPRPRPRPRRHPRP
shrunken log2 fold change: 0.559

RRIRMRPPRLPRPRPRPHCYPRP
shrunken log2 fold change: -0.0522

RRIRIRPPRLPRPRPRPIGTPRP
shrunken log2 fold change: -0.792

RRIRTRPPRLPRPRPRPKLHPRP
shrunken log2 fold change: -0.101

RRIRFRPPRLPRPRPRPMGGPRP
shrunken log2 fold change: -0.166

RRIRTRPPRLPRPRPRPSHCPRP
shrunken log2 fold change: -0.0229

RRIRGRPPRLPRPRPRPRGGPRP
shrunken log2 fold change: 1.05

RRIRIRPPRLPRPRPRPKLGPRP
shrunken log2 fold change: -0.217

RRIRPRPPRLPRPRPRPTRTPRP
shrunken log2 fold change: 0.508

RRIRVRPPRLPRPRPRPRAQPRP
shrunken log2 fold change: 0.126

RRIRWRPPRLPRPRPRPAVSPRP
shrunken log2 fold change: 0.127

RRIRYRPPRLPRPRPRPYALPRP
shrunken log2 fold change: -0.172

RRIRIRPPRLPRPRPRPTMRPRP
shrunken log2 fold change: 0.553

RRIRMRPPRLPRPRPRPWPAPRP
shrunken log2 fold change: 0.807

RRIRRRPPRLPRPRPRPFRKPRP
shrunken log2 fold change: -0.00961

RRIRWRPPRLPRPRPRPMFDPRP
shrunken log2 fold change: 0.139

RRIRNRPPRLPRPRPRPALSPRP
shrunken log2 fold change: 0.0962

RRIRQRPPRLPRPRPRPFLMPRP
shrunken log2 fold change: -0.421

RRIRIRPPRLPRPRPRPWQGPRP
shrunken log2 fold change: -0.125

RRIRNRPPRLPRPRPRPVYRPRP
shrunken log2 fold change: -0.815

RRIRGRPPRLPRPRPRPRAMPRP
shrunken log2 fold change: 0.787

RRIRERPPRLPRPRPRPLIRPRP
shrunken log2 fold change: -0.0588

RRIRLRPPRLPRPRPRPPQRPRP
shrunken log2 fold change: 0.26

RRIRVRPPRLPRPRPRPDKWPRP
shrunken log2 fold change: -0.151

RRIRWRPPRLPRPRPRPKMFPRP
shrunken log2 fold change: -0.0838

RRIRLRPPRLPRPRPRPWNFPRP
shrunken log2 fold change: -0.0899

RRIRWRPPRLPRPRPRPGISPRP
shrunken log2 fold change: -0.00138

RRIRNRPPRLPRPRPRPYTYPRP
shrunken log2 fold change: -0.68

RRIRMRPPRLPRPRPRPQDQPRP
shrunken log2 fold change: 0.228

RRIRYRPPRLPRPRPRPDRAPRP
shrunken log2 fold change: -0.0598

RRIRSRPPRLPRPRPRPCNFPRP
shrunken log2 fold change: -0.702

RRIRNRPPRLPRPRPRPDITPRP
shrunken log2 fold change: -0.0553

RRIRFRPPRLPRPRPRPHSSPRP
shrunken log2 fold change: -0.194

RRIRRRPPRLPRPRPRPLQTPRP
shrunken log2 fold change: 1.59

RRIRRRPPRLPRPRPRPTMQPRP
shrunken log2 fold change: 0.275

RRIRGRPPRLPRPRPRPFYRPRP
shrunken log2 fold change: -0.26

RRIRPRPPRLPRPRPRPKWCPRP
shrunken log2 fold change: 0.0741

RRIRWRPPRLPRPRPRPRDNPRP
shrunken log2 fold change: 0.0559

RRIRIRPPRLPRPRPRPDRRPRP
shrunken log2 fold change: -0.274

RRIRPRPPRLPRPRPRPHVIPRP
shrunken log2 fold change: -0.617

RRIRYRPPRLPRPRPRPEFEPRP
shrunken log2 fold change: -0.00195

RRIRRRPPRLPRPRPRPDYRPRP
shrunken log2 fold change: 0.0309

RRIRNRPPRLPRPRPRPCRHPRP
shrunken log2 fold change: -0.149

RRIRARPPRLPRPRPRPKLFPRP
shrunken log2 fold change: 0.233

RRIRIRPPRLPRPRPRPKCPPRP
shrunken log2 fold change: -0.263

RRIRHRPPRLPRPRPRPFEPPRP
shrunken log2 fold change: 0.00846

RRIRNRPPRLPRPRPRPCYHPRP
shrunken log2 fold change: -0.0967

RRIRERPPRLPRPRPRPSVKPRP
shrunken log2 fold change: -0.625

RRIRHRPPRLPRPRPRPYINPRP
shrunken log2 fold change: -0.862
